Results: publication PMC4225772

B1: tissue factor (TF): TFN11A (protein)
parent chain: METPAWPRVPRPETAVARTLLLGWVFAQVAGASGTTNTVAAYNLTWKSTNFKTILEWEPKPVNQVYTVQISTKSGDWKSKCFYTTDTECDLTDEIVKDVKQTYLARVFSYPAGNVESTGSAGEPLYENSPEFTPYLETNLGQPTIQSFEQVGTKVNVTVEDERTLVRRNNTFLSLRDVFGKDLIYTLYYWKSSSSGKKTAKTNTNEFLIDVDKGENYCFSVQAVIPSRTVNRKSTDSPVECMGQEKGEFREIFYIIGAVVFVVIILVIILAISLHKCRKAGVGQSWKENSPLNVS
B2: tissue factor (TF): TFN11A/N124A (protein)
parent chain: B1 parent chain
B3: tissue factor (TF): TFN11A/N137A (protein)
parent chain: B1 parent chain
B4: tissue factor (TF): TFN11A/N124A/N137A (protein)
parent chain: B1 parent chain
B5: tissue factor (TF): TFN11A/N124A/N137A-GFP (protein)
parent chain: B1 parent chain
B6: tissue factor (TF): tunicamycin (protein)
parent chain: B1 parent chain

Tests used:
[1] = FX activation assay, CHO cell surface; details: glycan lost; control: wild-type TF-GFP
[2] = CHO lysates, GFP immunoblot and GFP fluorescence; details: glycan lost; control: wild-type TF-GFP
[3] = cell-surface TF antigen, radiolabelled mAb binding, CHO; details: glycan lost; control: wild-type TF-GFP
[4] = FX activation assay, HUVEC surface; details: glycan lost; control: wild-type TF-GFP
[5] = FX activation in freeze-thaw HUVEC lysates; details: glycan lost; control: wild-type TF-GFP
[6] = confocal microscopy, GFP and TF immunostaining, HUVEC; details: glycan lost; control: wild-type TF-GFP
[7] = TF antigen ELISA, PBMC; details: glycan lost; control: LPS-stimulated PBMC without tunicamycin
[8] = FX activation on intact PBMC; details: glycan lost; control: LPS-stimulated PBMC without tunicamycin

| Protein | enzymatic_activity [1] | expression_or_secretion [2] | localisation_or_trafficking [3] | enzymatic_activity [4] | enzymatic_activity [5] | localisation_or_trafficking [6] | expression_or_secretion [7] | enzymatic_activity [8] |
| --- | --- | --- | --- | --- | --- | --- | --- | --- |
| B1 | no change | no change | no change |  |  |  |  |  |
| B2 | no change | no change | no change |  |  |  |  |  |
| B3 | no change | no change | no change |  |  |  |  |  |
| B4 | no change | no change | no change |  |  |  |  |  |
| B5 |  |  |  | no change | no change | no change |  |  |
| B6 |  |  |  |  |  |  | no change | no change |
